Source: US20170081400A1 (CEPHALON, published 2017)
Substitutions are numbered along the chain they refer to.

B1: 320-443 (antibody, human IgG1, name in Kabat numbering, V domains shown)
VH: QVQLVQSGAEVKKPGASVKVSCKASGYTFTSKDINWVRQAPGQGLEWMGWLNPNSGNTGYAQKFQGRVTMTADRSTSTAYMELSSLRSEDTAVYYCAREVPETAAFEYWGQGTLVTVSS
VL: QSVLTQPPSVSGAPGQRVTISCTSSSSDIGAGLGVHWYQQLPGTAPKLLIEGYYNRPSGVPDRFSGSKSGTSASLTITGLLPEDEGDYYCQSYDGTLSALFGGGTKLTVLG
notes: human IgG1, lambda
B2: 320-277 (antibody, human IgG1, V domains shown)
VH: B1 VH with K32Y
VL: B1 VL with L33S
B3: 320-267 (antibody, human IgG1, V domains shown)
VH: B1 VH with K32Y
VL: B1 VL with G32A
B4: 320-278 (antibody, human IgG1, V domains shown)
VH: B1 VH with K32Y
VL: B1 VL with L33Q
B5: 320-478 (antibody, human IgG1, name in Kabat numbering, V domains shown)
VH: B1 VH with K32Y, A61L
VL: B1 VL
notes: human IgG1, lambda
B6: 320-464 (antibody, human IgG1, name in Kabat numbering, V domains shown)
VH: B1 VH with K32Y, N35S
VL: B1 VL
notes: human IgG1, lambda
B7: 320-460 (antibody, human IgG1, name in Kabat numbering, V domains shown)
VH: B1 VH with K32Y, I34L
VL: B1 VL
notes: human IgG1, lambda
B8: 320-465 (antibody, human IgG1, name in Kabat numbering, V domains shown)
VH: B1 VH with K32Y, N35Q
VL: B1 VL
notes: human IgG1, lambda
B9: 320-469 (antibody, human IgG1, name in Kabat numbering, V domains shown)
VH: B1 VH with K32Y, N35L
VL: B1 VL
notes: human IgG1, lambda
B10: 320-480 (antibody, human IgG1, name in Kabat numbering, V domains shown)
VH: B1 VH with K32Y, A61Y
VL: B1 VL
notes: human IgG1, lambda
B11: 320-476 (antibody, human IgG1, name in Kabat numbering, V domains shown)
VH: B1 VH with Y27K, K32Y
VL: B1 VL
notes: human IgG1, lambda
B12: 320-491 (antibody, human IgG1, name in Kabat numbering, V domains shown)
VH: B1 VH with K32Y, L51S
VL: B1 VL
notes: human IgG1, lambda
B13: 320-459 (antibody, human IgG1, name in Kabat numbering, V domains shown)
VH: B1 VH with K32Y, I34K
VL: B1 VL
notes: human IgG1, lambda
B14: 320-477 (antibody, human IgG1, name in Kabat numbering, V domains shown)
VH: B1 VH with S31H, K32Y
VL: B1 VL
notes: human IgG1, lambda
B15: 320-467 (antibody, human IgG1, name in Kabat numbering, V domains shown)
VH: B1 VH with K32Y, N35H
VL: B1 VL
notes: human IgG1, lambda
B16: 320-472 (antibody, human IgG1, name in Kabat numbering, V domains shown)
VH: B1 VH with K32Y
VL: B1 VL with S92L
notes: human IgG1, lambda
B17: 320-256 (antibody, human IgG1, name in Kabat numbering, V domains shown)
VH: B1 VH with K32Y
VL: B1 VL with G30L
notes: human IgG1, lambda
B18: 320-490 (antibody, human IgG1, name in Kabat numbering, V domains shown)
VH: B1 VH with K32Y, W50Y
VL: B1 VL
notes: human IgG1, lambda
B19: 320-462 (antibody, human IgG1, name in Kabat numbering, V domains shown)
VH: B1 VH with K32Y, I34Y
VL: B1 VL
notes: human IgG1, lambda
B20: 320-456 (antibody, human IgG1, name in Kabat numbering, V domains shown)
VH: B1 VH with K32Y, I34Q
VL: B1 VL
notes: human IgG1, lambda
B21: 320-445 (antibody, human IgG1, name in Kabat numbering, V domains shown)
VH: B1 VH with K32W
VL: B1 VL
notes: human IgG1, lambda
B22: 320-466 (antibody, human IgG1, name in Kabat numbering, V domains shown)
VH: B1 VH with K32Y, N35D
VL: B1 VL
notes: human IgG1, lambda
B23: 320-458 (antibody, human IgG1, name in Kabat numbering, V domains shown)
VH: B1 VH with K32Y, I34H
VL: B1 VL
notes: human IgG1, lambda
B24: 320-473 (antibody, human IgG1, name in Kabat numbering, V domains shown)
VH: B1 VH with K32Y
VL: B1 VL with Y93D
notes: human IgG1, lambda
B25: 320-461 (antibody, human IgG1, name in Kabat numbering, V domains shown)
VH: B1 VH with K32Y, I34W
VL: B1 VL
notes: human IgG1, lambda
B26: 320-547 (antibody, human IgG1, name in Kabat numbering, V domains shown)
VH: B1 VH with K32Y, N57Y
VL: B1 VL
notes: full-length human IgG1, lambda
B27: 320-479 (antibody, human IgG1, name in Kabat numbering, V domains shown)
VH: B1 VH with K32Y, A61W
VL: B1 VL
notes: human IgG1, lambda
B28: 320-463 (antibody, human IgG1, name in Kabat numbering, V domains shown)
VH: B1 VH with K32Y, N35A
VL: B1 VL
notes: human IgG1, lambda

Assays:
[1] = target: T1, human TL1A extracellular domain with N-terminal HIS and FLAG tag (human) (UniProt O95150); experiment: cell-based or functional assay
T1 sequence: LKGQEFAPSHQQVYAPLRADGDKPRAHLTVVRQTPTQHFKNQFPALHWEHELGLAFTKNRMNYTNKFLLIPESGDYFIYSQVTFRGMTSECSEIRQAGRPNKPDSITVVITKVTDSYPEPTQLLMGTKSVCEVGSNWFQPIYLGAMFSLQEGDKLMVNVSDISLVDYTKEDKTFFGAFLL

[2] = target: T2, human TL1A extracellular domain with N-terminal HIS and FLAG tag (human, UniProt O95150 72-251); experiment: SPR Run 6, purified Ab captured on Protein A, TL1A 5 ug/mL, timepoint 44
T2 construct: the whole entry is named
T2 sequence: T1 sequence
From the text: (§1) 1.5. Antibody expression and antigen binding as determined by SPR. Using a CM5 sensor chip (GE Healthcare) Protein A (Pierce) was coupled to the chip surface using an amine coupling kit (GE Healthcare). Protein A was coupled on flow cell 1 and 2 (or alternatively 3 and 4) using a BIACORE® T200. […] The amount of supernatant or purified protein (as well as the concentration) injected during the capture stage varied between runs and is specified in the header of the Tables 3-11. At the end of injection of the supernatant or purified antibody the change in response units was measured. This value was reported as Capture Level in Tables 3-11. […] The response units were measured prior to the end of the dissociation phase. […] The sensorgrams were double referenced (flow cell 2 is subtracted from flow cell 1 and a buffer blank). As there were a large number of antibody variants to screen, these were screened across different runs (Tables 3-11). […] A summary of the conditions used in each run is below:
(§2) 2.1. […] In some experiment the antibodies were purified using Protein A chromatography (See 1.4) and purified antibodies were used in BIACORE® (GE Healthcare) experiments.

[3] = target: T2, human TL1A extracellular domain with …; experiment: SPR Run 6, purified Ab captured on Protein A, TL1A 5 ug/mL, timepoint 170
From the text: as §1, §2

[4] = target: T3, human TL1A extracellular domain with N-terminal HIS and FLAG tag (human, UniProt O95150 72-251); experiment: cell-based or functional assay
T3 sequence: T1 sequence

[5] = target: T4, human TL1A extracellular domain with N-terminal HIS and FLAG tag (human, UniProt O95150 72-251); experiment: SPR run 3; supernatant on Protein A; TL1A 10 ug/mL; timepoint 59
T4 construct: whole entry named. ~70 kDa fraction purified by gel filtration
T4 sequence: T1 sequence
From the text: as §1, §2

[6] = target: T4, human TL1A extracellular domain with …; experiment: SPR run 3; supernatant on Protein A; TL1A 10 ug/mL; timepoint 590
From the text: as §1, §2

[7] = target: T3, human TL1A extracellular domain with …; experiment: SPR Run 7, antibody on Protein A, TL1A 5 ug/mL, timepoint 44
In short: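 Biacore T200 SPR with antibody (supernatant or Protein A-purified) captured on Protein A amine-coupled to a CM5 chip; capture level recorded as response change at end of capture.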

[8] = target: T3, human TL1A extracellular domain with …; experiment: SPR Run 7, antibody on Protein A, TL1A 5 ug/mL, timepoint 220
In short: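 The capture level was the response change at the end of loading, which varied by run. Antigen response was read before dissociation ended, double-referenced against a reference flow cell and a buffer blank.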

Binder | TL1A Binding Level (Early) [2] [RU] | TL1A Binding Level (Late) [3] [RU] | also measured
B1 | 114 | 103 | Antibody IC50, TL1A induced caspase potency assay in TF-1 cells [1]: 0.06 µg/mL; Fold improvement over 320-179, TL1A induced caspase potency assay in TF-1 cells [1]: 1 fold
B2 | – | – | Antibody IC50, TL1A induced caspase potency assay in TF-1 cells [4]: 0.003 µg/mL; Fold improvement over 320-179, TL1A induced caspase potency assay in TF-1 cells [4]: 3 fold
B3 | – | – | Antibody IC50, TL1A induced caspase potency assay in TF-1 cells [4]: 0.01 µg/mL; Fold improvement over 320-179, TL1A induced caspase potency assay in TF-1 cells [4]: 4 fold
B4 | – | – | Antibody IC50, TL1A induced caspase potency assay in TF-1 cells [4]: 0.01 µg/mL; Fold improvement over 320-179, TL1A induced caspase potency assay in TF-1 cells [4]: 2 fold
B5 | 85 | 77 | –
B6 | 130 | 124 | Antibody IC50, TL1A induced caspase potency assay in TF-1 cells [1]: 0.03 µg/mL; Fold improvement over 320-179, TL1A induced caspase potency assay in TF-1 cells [1]: 2 fold
B7 | 114 | 105 | –
B8 | 92 | 78 | –
B9 | 69 | 61 | –
B10 | 79 | 73 | –
B11 | 128 | 118 | –
B12 | 85 | 76 | –
B13 | 20 | 17 | –
B14 | 148 | 136 | Antibody IC50, TL1A induced caspase potency assay in TF-1 cells [1]: 0.03 µg/mL; Fold improvement over 320-179, TL1A induced caspase potency assay in TF-1 cells [1]: 1 fold
B15 | 44 | 24 | –
B16 | 23 | 10 | –
B17 | – | – | TL1A Binding Level (Early) [5]: 30 RU; TL1A Binding Level (Late) [6]: 10 RU
B18 | 14 | 8 | –
B19 | 58 | 52 | –
B20 | 52 | 46 | –
B21 | 116 | 106 | Antibody IC50, TL1A induced caspase potency assay in TF-1 cells [1]: 0.03 µg/mL; Fold improvement over 320-179, TL1A induced caspase potency assay in TF-1 cells [1]: 2 fold
B22 | 93 | 86 | –
B23 | 59 | 53 | –
B24 | 69 | 55 | –
B25 | 87 | 82 | –
B26 | – | – | Antibody IC50, TL1A induced caspase potency assay in TF-1 cells [4]: 0.004 µg/mL; Fold improvement over 320-179, TL1A induced caspase potency assay in TF-1 cells [4]: 10 fold; TL1A Binding Level (Early) [7]: 77 RU; TL1A Binding Level (Late) [8]: 75 RU
B27 | 61 | 54 | –
B28 | 102 | 101 | Antibody IC50, TL1A induced caspase potency assay in TF-1 cells [1]: 0.02 µg/mL; Fold improvement over 320-179, TL1A induced caspase potency assay in TF-1 cells [1]: 3 fold
